In patent CN115594762A (KUNSHAN XINYUNDA BIOTECHNOLOGY CO LTD, dated 2023):

Biological target: 人重链铁蛋白(HFn) (人铁蛋白H亚基, wild type, recombinant from E. coli) (human)
Test: ELISA, antigen coated at 1 μg/ml, purified antibody titrated, HRP goat anti-mouse IgG, OD450

人重链铁蛋白(HFn) (人铁蛋白H亚基, wild type, recombinant from E. coli) (human), sequence (chain, as listed by the source): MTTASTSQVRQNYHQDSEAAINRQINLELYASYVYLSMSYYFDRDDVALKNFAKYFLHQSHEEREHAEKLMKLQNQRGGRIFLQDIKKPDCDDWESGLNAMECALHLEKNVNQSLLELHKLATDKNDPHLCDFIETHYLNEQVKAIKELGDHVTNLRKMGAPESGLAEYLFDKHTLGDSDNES

B1: 单克隆抗体3A (抗人重链铁蛋白的抗体3A, secreted by hybridoma 3A7 1B6, CGMCC NO:21906) (antibody, IgG2b, V domains shown)
VH: EVQLQQPGAELVKPGTSVKLSCKASGYIFTSYWMHWVKQRPGQGLEWIGEINPSNARTNYNEKFKSKATLTVDKSSSTTYMQLSSLTSEDSAVYYCARSSYGKNAMDYWGQGTSVTVSS
VL: DIQMTQTPSSLSASLGDRVTISCRTSQDISNYLNWYQQKPDGTVKLLIYYTSRLHSGVPSRFSGSGSGTAYSLTISNLEQEDIATYLCQEGNTLPRTFGGGTKLEIKR
notes: also called 3A单抗; 3A抗体
For B1, the EC50 was 3.68 ng/mL.
